Experimental data taken from patent publication US20240417446A1 (US Dept. of Health and Human Services, published 2024).

B1: NCI-CoV-CGH3 (VHH)
VHH: AVQLVESGGGLVQPGGSLRLSCAASGFTFSSYAMGWVRQAPGKGLEWISAINSGGDIRYYADSVKGRFTISRDNAKNTLYLQMNSLKPEDTAVYYCATDDEILSYGLGTSFDYWGQGTQVTVSS
B2: NCI-CoV-S4A9 (VNAR)
VNAR: ARVDQTPRSVTKETGESLTINCVLRDASYALGSTCWYRKKSGSTNEESISKGGRYVETVNSGSKSFSLRINDLTVEDGGTYRCGVQSRWGAVPKLCSNYAACGDGTAVTVN
B3: NCI-CoV-S3A10 (VNAR)
VNAR: ARVDQTPRSVTKETGESLTINCVLRDASYALGSTCWYRKKSGSTNEESISKGGRYVETVNSGSKSFSLRINDLTVEDGGTYRCGRIQNTKAVLLPCVYAACGDGTVVTVN
B4: NCI-CoV-CLA2 (VHH)
VHH: QVQLVESGGGSVQPGGSLRLSCAVSGYTSSSYCFGWFRQAPGKDREGIIAMEPGNTYTAGAVKGRFTISRDNAKNMVYLQMNSLKPDDTAMYYCAASPYPGTWLNPDLFDTWGQGTQVTVSS
B5: NCI-CoV-CGF10 (VHH)
VHH: AVQLVESGGGLVQPGGSLRLSCAASGFTFSSYGMHWVRQAPGKGLERVAGINWDGSNSYYTETVKGRFTISRDNAKNTAYLQMNSLKPEDTAMYYCRTLILDSDCDPGSTYRYAWGQGTQVTVSS
B6: NCI-CoV-CG2D11 (VHH)
VHH: AVQLVDSGGGSVQAGGSLRLSCAGSAFTYSSYCMGWFRQAPGKEREAVAAINSGTSSTYYADSVKGRFTVSQDNANNTVYLLMISLKPEDTAIYICAALVAPDYDDYDVAAPDNFDYWGQGTQVTVSS
B7: NCI-CoV-CG2G2 (VHH)
VHH: AVQLVESGGGSVPPGGSLTLSCTVSDNIFRTYAVGWFRQAPEKRCQWIATLNADESTEYNVAVTGRFTISRDNSGRSVYLQMDNLNSEDTAIYYCASLARKWSCHDSWGRGTQVTVSS
B8: NCI-CoV-S2G8 (VNAR)
VNAR: ARVDQTPQTITKETGESLTINCVLRDSNCPLSNTYWYRKKSGSTNEESISKGGRYVETVNSGSKSFSLRINDLTVEDSGTYRCKVRTHWSICWEMGLEPNYDVYGGGTVVTVN
B9: NCI-CoV-S2A9 (VNAR)
VNAR: ARVDQTPRSVTKETGESLTINCVLRDASYALGRTCWYRKKSGSTNEESISKGGRYVETVNSGSKSFSLRINDLTVEDGGTYRCGVSTPWSCDYGPLCFYAACGDGTVVTVN
B10: NCI-CoV-CL3H4 (VHH)
VHH: DVQLVESGGGAVKPGGSLTLTCTVQEGSRNCVGWFRQGSGKDRQAVAMINGNGGTTNYDDRVKGRFQISRDGSLVHLRMNDVKLGDTDIYYCRQGQTYDCWGGTWTDSGWGQGTQVTVSS

Columns and labels:
[1] = target: T1, SARS-CoV-2 spike protein on pseudovirus (SARS-CoV-2, UniProt P0DTC2 14-1273); experiment: cell-based or functional assay
A431-SARS-CoV-S = experiment: Flow cytometry on A431 cells expressing SARS-CoV spike, anti-FLAG-APC detection
BSA [2] = target: T2, BSA (bovine, UniProt P02769); experiment: Protein ELISA, antigen coated, HRP-anti-Flag detection, OD450
T2 construct: also called bovine serum albumin
T2 sequence (P02769 25-607 limits assumed): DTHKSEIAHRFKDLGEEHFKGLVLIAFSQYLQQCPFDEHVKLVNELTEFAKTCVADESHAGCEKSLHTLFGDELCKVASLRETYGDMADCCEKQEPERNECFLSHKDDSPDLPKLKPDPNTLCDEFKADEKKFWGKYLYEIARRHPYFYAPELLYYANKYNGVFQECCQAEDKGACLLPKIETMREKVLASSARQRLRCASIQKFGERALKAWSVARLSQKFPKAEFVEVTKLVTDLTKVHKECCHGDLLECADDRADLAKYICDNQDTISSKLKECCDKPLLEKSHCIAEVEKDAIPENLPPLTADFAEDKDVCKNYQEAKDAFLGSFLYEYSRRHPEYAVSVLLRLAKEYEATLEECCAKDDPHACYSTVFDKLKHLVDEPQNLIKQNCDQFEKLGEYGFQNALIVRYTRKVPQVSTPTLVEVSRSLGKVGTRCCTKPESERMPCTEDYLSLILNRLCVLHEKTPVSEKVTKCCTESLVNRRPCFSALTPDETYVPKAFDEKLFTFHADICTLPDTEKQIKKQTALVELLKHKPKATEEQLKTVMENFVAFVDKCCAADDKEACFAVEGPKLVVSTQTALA

BSA [3] = target: T2, BSA; experiment: Protein ELISA, antigen coated, HRP-anti-Flag detection, absorbance 450 nm
[4] = target: T1, SARS-CoV-2 spike protein on pseudovirus; experiment: cell-based or functional assay; remark: listed apart in the source
[5] = target: T1, SARS-CoV-2 spike protein on pseudovirus; experiment: cell-based or functional assay; remark: listed apart in the source
[6] = target: SARS-CoV-1 spike protein on pseudovirus (SARS-CoV-1, UniProt P59594 14-1255); experiment: cell-based or functional assay
BSA [7] = target: T2, BSA; experiment: Protein ELISA, antigen coated, HRP-anti-Flag detection, absorbance 450 nm; remark: listed apart in the source

Binder | Neutralizing Power, SARS-CoV-2 Pseudovirus Neutralization Assay [1] | binding result (A431-SARS-CoV-S) | further results
B1 | 30% | no binding | 
B2 | 30% |  | 
B3 | 60% |  | 
B4 | 45% |  | 
B5 | 20% | no binding | 
B6 | 40% |  | 
B7 | 50% |  | binding result (BSA [2]): no binding (tested: 10 µg/ml)
B8 | 50% | binds | binding result (BSA [3]): no binding (tested: 10 µg/ml)
B9 | 90% |  | IC50, neutralization of the original strain of SARS-CoV-2 pseudovirus [4]: 1.39 µM; IC50, pseudovirus neutralization (luciferase, 293-hACE2 cells) [4]: 1.29 µM; IC50 for neutralizing pseudovirus [5]: 4.34 µM; IC50 for neutralizing pseudovirus [6]: 49.3 µM; binding result (BSA [7]): no binding (tested: 10 µg/ml)
B10 | 30% |  | 
